From publication PMC5958618

Molecular target: F-actin (UniProt P68032)
Experiment: co-sedimentation

Kd | Substance
1600 nM | E40K mutant human α-tropomyosin (Tpm1.1) with the N-terminal extension Met-Ala-Ser (natural protein)
1700 nM | E62Q mutant human α-tropomyosin (Tpm1.1) with the N-terminal extension Met-Ala-Ser (natural protein)
1800 nM | wild-type human striated α-tropomyosin (Tpm1.1) with the N-terminal extension Met-Ala-Ser (natural protein)
